Reference: patent publication US20150266974A1 (RINAT NEUROSCIENCE, published 2015)

Columns and labels:
[1] = target: T1, mouse PCSK9 (mouse, UniProt Q80W65 35-694, limits assumed); experiment: SPR Biacore 3000, captured IgG, mPCSK9 injected, pH 5.5
T1 construct: also called mPCSK9; msPCK9
Excerpt: (§1) These antibodies were expressed and purified for determination of their KD at 7.4 and their KD ratio of pH5.5/pH 7.4, as measured on a surface plasmon resonance Biacore 3000 biosensor equipped with a research-grade sensor chip using HBS-EP running buffer (Biacore AB, Uppsala, Sweden—now GE Healthcare). Rabbit polyclonal anti-Ms IgGs were amine-coupled at saturating levels onto the chip using a standard N-hydroxysuccinimide/ethyldimethylaminopropyl carbodiimide (NHS/EDC) chemistry. The buffer was switched to HBS-EP+1 mg/mL BSA+1 mg/mL CM-dextran. Full-length PCSK9 IgGs were diluted to about 15 μg/mL and captured for 1 min at 5 μL/min to give levels of about 500 RU per flow cell, leaving one blank to serve as a reference channel. […] Dissociation was monitored for 5 min. The chip was regenerated after the last injection of each titration with two 30 sec pulses of 100 mM phosphoric acid. Buffer cycles provided blanks for double-referencing the data, which were then fit globally to a simple binding model using Biaevaluation software v.4.1. Affinities were deduced from the quotient of the kinetic rate constants (KD=koff/kₒₙ).

[2] = target: T1, mouse PCSK9; experiment: SPR Biacore 3000, captured IgG, mPCSK9 injected, pH 7.4
Excerpt: as §1

[3] = target: T2, human PCSK9 (human, UniProt Q8NBP7 31-692, limits assumed); experiment: SPR Biacore 3000, KD at pH 5.5 over KD at pH 7.4
T2 construct: also called hPCSK9; huPCSK9
T2 sequence (Q8NBP7 31-692 limits assumed): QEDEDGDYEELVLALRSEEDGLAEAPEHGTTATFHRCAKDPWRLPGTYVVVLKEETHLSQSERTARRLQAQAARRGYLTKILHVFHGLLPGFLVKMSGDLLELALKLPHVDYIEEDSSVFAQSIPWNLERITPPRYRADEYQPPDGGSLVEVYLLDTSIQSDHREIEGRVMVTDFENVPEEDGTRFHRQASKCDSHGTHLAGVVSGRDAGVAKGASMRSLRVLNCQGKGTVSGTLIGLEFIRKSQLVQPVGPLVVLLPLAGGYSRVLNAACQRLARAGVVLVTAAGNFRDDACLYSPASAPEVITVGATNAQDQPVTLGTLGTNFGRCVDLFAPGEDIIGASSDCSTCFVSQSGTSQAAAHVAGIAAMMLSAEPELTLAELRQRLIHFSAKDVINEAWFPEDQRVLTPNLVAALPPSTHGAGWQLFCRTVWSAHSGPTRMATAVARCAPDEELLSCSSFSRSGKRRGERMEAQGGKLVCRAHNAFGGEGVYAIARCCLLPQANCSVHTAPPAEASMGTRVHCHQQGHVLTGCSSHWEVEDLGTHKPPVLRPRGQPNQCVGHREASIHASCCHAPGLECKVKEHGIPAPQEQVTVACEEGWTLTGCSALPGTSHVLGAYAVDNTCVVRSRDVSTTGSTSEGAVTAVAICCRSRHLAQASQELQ
Excerpt: as §1

[4] = target: T1, mouse PCSK9; experiment: SPR Biacore 3000, KD at pH 5.5 over KD at pH 7.4
Excerpt: as §1

[5] = target: T2, human PCSK9; experiment: SPR Biacore 3000, captured IgG, hPCSK9 injected, pH 5.5
Excerpt: as §1

[6] = target: T2, human PCSK9; experiment: SPR Biacore 3000, captured IgG, hPCSK9 injected, pH 7.4
Excerpt: as §1

T1 sequence (Q80W65 35-694 limits assumed): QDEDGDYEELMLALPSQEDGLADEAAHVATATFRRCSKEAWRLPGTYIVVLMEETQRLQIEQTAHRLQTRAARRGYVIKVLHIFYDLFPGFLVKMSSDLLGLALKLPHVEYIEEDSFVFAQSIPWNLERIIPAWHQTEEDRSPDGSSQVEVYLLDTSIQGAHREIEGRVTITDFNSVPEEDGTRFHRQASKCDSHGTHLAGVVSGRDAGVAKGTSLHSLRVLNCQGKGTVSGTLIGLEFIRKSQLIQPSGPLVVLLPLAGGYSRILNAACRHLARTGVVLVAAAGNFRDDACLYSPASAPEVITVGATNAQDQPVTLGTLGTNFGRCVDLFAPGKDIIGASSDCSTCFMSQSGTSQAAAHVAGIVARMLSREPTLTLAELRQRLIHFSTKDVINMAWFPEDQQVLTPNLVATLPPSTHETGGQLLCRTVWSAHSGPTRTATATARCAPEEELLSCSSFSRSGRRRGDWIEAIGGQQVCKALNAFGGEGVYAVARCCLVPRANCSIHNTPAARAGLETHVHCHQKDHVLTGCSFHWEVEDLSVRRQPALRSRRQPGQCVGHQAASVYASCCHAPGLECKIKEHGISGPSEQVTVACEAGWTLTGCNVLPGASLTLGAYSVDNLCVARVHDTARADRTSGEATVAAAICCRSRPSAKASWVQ

Binder | Kd [1] | koff [1] | kon [1] | Kd [2] | koff [2] | kon [2] | KD ratio pH 5.5/7.4 [3] | KD ratio pH 5.5/7.4 [4] | Kd [5] | koff [5] | kon [5] | Kd [6] | koff [6] | kon [6]
5L1721H23_6L3H3 (antibody, V domains shown, Tested as full-length IgG; also called heavy UC-H5H23-6H3, light UC-H5L1721-6L3) VH: QVQLVQSGAEVKKPGASVKVSCKASGYTFTSYYMHWVRQAPGQGLEWMGEIHPSGGRTNYNEKFKSRVTMTRDTSTSTVYMELSSLRSEDTAVYYCARERPLYASDLWGQGTTVTVSS VL: DIQMTQSPSSLSASVGDRVTITCKASQDVHTAVAWYQQKPGKAPKLLIYHASYRYTGVPSRFSGSGSGTDFTFTISSLQPEDIATYYCQQRYSLWRTFGQGTKLEIK | 117 nM | 0.0187 s⁻¹ | 160000 M⁻¹ s⁻¹ | 8.1 nM | 0.000516 s⁻¹ | 63700 M⁻¹ s⁻¹ |  |  |  |  |  |  |  | 
6L21H2335 (antibody, V domains shown) VH: QVQLVQSGAEVKKPGASVKVSCKASGYTFTSYYMHWVRQAPGQGLEWMGEIHPFGGRTNYNEKFKSRVTMTRDTSTSTVYMELSSLRSEDTAVYYCARERPLHASDLWGQGTTVTVSS VL: DIQMTQSPSSLSASVGDRVTITCRASQGISSALAWYQQKPGKAPKLLIYHASYRYTGVPSRFSGSGSGTDFTFTISSLQPEDIATYYCQQRYSLWRTFGQGTKLEIK | 451 nM | 0.237 s⁻¹ | 526000 M⁻¹ s⁻¹ | 191 nM | 0.0172 s⁻¹ | 89900 M⁻¹ s⁻¹ | 2.9 | 2.4 | 363 nM | 0.238 s⁻¹ | 655000 M⁻¹ s⁻¹ | 126 nM | 0.00733 s⁻¹ | 58100 M⁻¹ s⁻¹
5L1724H23_6L3H3 (antibody, V domains shown, Only CDRs printed; Full-length IgG) VH: QVQLVQSGAEVKKPGASVKVSCKASGYTFTSYYMHWVRQAPGQGLEWMGEIHPSGGRTNYNEKFKSRVTMTRDTSTSTVYMELSSLRSEDTAVYYCARERPLYASDLWGQGTTVTVSS VL: DIQMTQSPSSLSASVGDRVTITCKASQDVHTAVAWYQQKPGKAPKLLIYSASHRYTGVPSRFSGSGSGTDFTFTISSLQPEDIATYYCQQRYSLWRTFGQGTKLEIK | 125 nM | 0.0263 s⁻¹ | 211000 M⁻¹ s⁻¹ | 13 nM | 0.000827 s⁻¹ | 63100 M⁻¹ s⁻¹ | 5.5 | 9.6 | 83 nM | 0.00789 s⁻¹ | 95500 M⁻¹ s⁻¹ | 15 nM | 0.000342 s⁻¹ | 22300 M⁻¹ s⁻¹
6L1721H23 (antibody, V domains shown, L1L3-based mutant; Full-length IgG) VH: QVQLVQSGAEVKKPGASVKVSCKASGYTFTSYYMHWVRQAPGQGLEWMGEIHPFGGRTNYNEKFKSRVTMTRDTSTSTVYMELSSLRSEDTAVYYCARERPLYASDLWGQGTTVTVSS VL: DIQMTQSPSSLSASVGDRVTITCRASQGIHSALAWYQQKPGKAPKLLIYHASYRYTGVPSRFSGSGSGTDFTFTISSLQPEDIATYYCQQRYSLWRTFGQGTKLEIK | 36 nM | 0.00729 s⁻¹ | 204000 M⁻¹ s⁻¹ | 7.2 nM | 0.000469 s⁻¹ | 64800 M⁻¹ s⁻¹ | 6 | 5 | 24 nM | 0.00261 s⁻¹ | 110000 M⁻¹ s⁻¹ | 4 nM | 0.000201 s⁻¹ | 50200 M⁻¹ s⁻¹
5L1724H35 (antibody, V domains shown, Triple histidine mutant of h5A10; Only CDRs printed; Full-length IgG) VH: QVQLVQSGAEVKKPGASVKVSCKASGYTFTSYYMHWVRQAPGQGLEWMGEINPSGGRTNYNEKFKSRVTMTRDTSTSTVYMELSSLRSEDTAVYYCARERPLHAMDYWGQGTTVTVSS VL: DIQMTQSPSSLSASVGDRVTITCKASQDVHTAVAWYQQKPGKAPKLLIYSASHRYTGVPSRFSGSGSGTDFTFTISSLQPEDIATYYCQQRYSTPRTFGQGTKLEIK |  |  |  | 35 nM | 0.00153 s⁻¹ | 44300 M⁻¹ s⁻¹ |  |  |  |  |  |  |  | 
5L1724H23_6L3 (antibody, V domains shown, Only CDRs printed; Full-length IgG) VH: QVQLVQSGAEVKKPGASVKVSCKASGYTFTSYYMHWVRQAPGQGLEWMGEIHPSGGRTNYNEKFKSRVTMTRDTSTSTVYMELSSLRSEDTAVYYCARERPLYAMDYWGQGTTVTVSS VL: DIQMTQSPSSLSASVGDRVTITCKASQDVHTAVAWYQQKPGKAPKLLIYSASHRYTGVPSRFSGSGSGTDFTFTISSLQPEDIATYYCQQRYSLWRTFGQGTKLEIK | 756 nM | 0.121 s⁻¹ | 160000 M⁻¹ s⁻¹ | 41 nM | 0.00218 s⁻¹ | 53100 M⁻¹ s⁻¹ | 24.5 | 18.4 | 540 nM | 0.0407 s⁻¹ | 75400 M⁻¹ s⁻¹ | 22 nM | 0.00079 s⁻¹ | 35900 M⁻¹ s⁻¹

The remaining binders from weak to strong by Kd [1], led by results:

Kd [1] | koff [1] | kon [1] | Kd [2] | koff [2] | kon [2] | KD ratio pH 5.5/7.4 [3] | KD ratio pH 5.5/7.4 [4] | Kd [5] | koff [5] | kon [5] | Kd [6] | koff [6] | kon [6] | Binder
576 nM | 0.0588 s⁻¹ | 102000 M⁻¹ s⁻¹ | 23 nM | 0.00141 s⁻¹ | 61200 M⁻¹ s⁻¹ | 11.1 | 25 | 144 nM | 0.0179 s⁻¹ | 124000 M⁻¹ s⁻¹ | 13 nM | 0.000399 s⁻¹ | 31700 M⁻¹ s⁻¹ | 5L1721H23 (antibody, V domains shown, Triple histidine mutant of h5A10; Only CDRs printed; Full-length IgG) VH: QVQLVQSGAEVKKPGASVKVSCKASGYTFTSYYMHWVRQAPGQGLEWMGEIHPSGGRTNYNEKFKSRVTMTRDTSTSTVYMELSSLRSEDTAVYYCARERPLYAMDYWGQGTTVTVSS VL: DIQMTQSPSSLSASVGDRVTITCKASQDVHTAVAWYQQKPGKAPKLLIYHASYRYTGVPSRFSGSGSGTDFTFTISSLQPEDIATYYCQQRYSTPRTFGQGTKLEIK
408 nM | 0.0428 s⁻¹ | 105000 M⁻¹ s⁻¹ | 14 nM | 0.000676 s⁻¹ | 47500 M⁻¹ s⁻¹ | 37.2 | 29.1 | 257 nM | 0.0166 s⁻¹ | 64500 M⁻¹ s⁻¹ | 6.9 nM | 0.000214 s⁻¹ | 30900 M⁻¹ s⁻¹ | 5L1721H23_6L3 (antibody, V domains shown, Tested as full-length IgG; also called heavy UC-H5H23, light UC-H5L1721-6L3) VH: QVQLVQSGAEVKKPGASVKVSCKASGYTFTSYYMHWVRQAPGQGLEWMGEIHPSGGRTNYNEKFKSRVTMTRDTSTSTVYMELSSLRSEDTAVYYCARERPLYAMDYWGQGTTVTVSS VL: DIQMTQSPSSLSASVGDRVTITCKASQDVHTAVAWYQQKPGKAPKLLIYHASYRYTGVPSRFSGSGSGTDFTFTISSLQPEDIATYYCQQRYSLWRTFGQGTKLEIK
111 nM | 0.0341 s⁻¹ | 307000 M⁻¹ s⁻¹ | 8 nM | 0.000899 s⁻¹ | 113000 M⁻¹ s⁻¹ | 7.5 | 13.9 | 55 nM | 0.00772 s⁻¹ | 141000 M⁻¹ s⁻¹ | 7.3 nM | 0.000273 s⁻¹ | 37400 M⁻¹ s⁻¹ | 5L1721H23_6H3 (antibody, V domains shown, Only CDRs printed; Full-length IgG) VH: QVQLVQSGAEVKKPGASVKVSCKASGYTFTSYYMHWVRQAPGQGLEWMGEIHPSGGRTNYNEKFKSRVTMTRDTSTSTVYMELSSLRSEDTAVYYCARERPLYASDLWGQGTTVTVSS VL: DIQMTQSPSSLSASVGDRVTITCKASQDVHTAVAWYQQKPGKAPKLLIYHASYRYTGVPSRFSGSGSGTDFTFTISSLQPEDIATYYCQQRYSTPRTFGQGTKLEIK
74 nM | 0.0202 s⁻¹ | 273000 M⁻¹ s⁻¹ |  |  |  |  |  | 39 nM | 0.00793 s⁻¹ | 203000 M⁻¹ s⁻¹ |  |  |  | 5L1724H23 (antibody, V domains shown, Triple histidine mutant of h5A10; Only CDRs printed; Full-length IgG) VH: QVQLVQSGAEVKKPGASVKVSCKASGYTFTSYYMHWVRQAPGQGLEWMGEIHPSGGRTNYNEKFKSRVTMTRDTSTSTVYMELSSLRSEDTAVYYCARERPLYAMDYWGQGTTVTVSS VL: DIQMTQSPSSLSASVGDRVTITCKASQDVHTAVAWYQQKPGKAPKLLIYSASHRYTGVPSRFSGSGSGTDFTFTISSLQPEDIATYYCQQRYSTPRTFGQGTKLEIK
5.2 nM | 0.00177 s⁻¹ | 338000 M⁻¹ s⁻¹ | 2.6 nM | 0.000228 s⁻¹ | 88000 M⁻¹ s⁻¹ | 2.3 | 2 | 5.1 nM | 0.00084 s⁻¹ | 166000 M⁻¹ s⁻¹ | 2.2 nM | 7.08e-05 s⁻¹ | 32900 M⁻¹ s⁻¹ | 6L1721 (antibody, V domains shown, L1L3-based mutant; Tested as full-length IgG) VH: QVQLVQSGAEVKKPGASVKVSCKASGYTFTSYYMHWVRQAPGQGLEWMGEISPFGGRTNYNEKFKSRVTMTRDTSTSTVYMELSSLRSEDTAVYYCARERPLYASDLWGQGTTVTVSS VL: DIQMTQSPSSLSASVGDRVTITCRASQGIHSALAWYQQKPGKAPKLLIYHASYRYTGVPSRFSGSGSGTDFTFTISSLQPEDIATYYCQQRYSLWRTFGQGTKLEIK
